Measured values: patent publication US20260176675

Target: Eosinophil peroxidase (EPX) (Homo sapiens) (UniProt P11678+P11678)
Assay: cleavage_in_vitro
Details: 30 min

Chain of Eosinophil peroxidase (EPX) (Homo sapiens) (P11678 140-250, chain 1 of 2): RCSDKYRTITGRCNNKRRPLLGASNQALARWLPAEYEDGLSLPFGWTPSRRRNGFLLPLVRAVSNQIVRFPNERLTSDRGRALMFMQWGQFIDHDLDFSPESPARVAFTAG
Chain of Eosinophil peroxidase (EPX) (Homo sapiens) (P11678 251-715, chain 2 of 2): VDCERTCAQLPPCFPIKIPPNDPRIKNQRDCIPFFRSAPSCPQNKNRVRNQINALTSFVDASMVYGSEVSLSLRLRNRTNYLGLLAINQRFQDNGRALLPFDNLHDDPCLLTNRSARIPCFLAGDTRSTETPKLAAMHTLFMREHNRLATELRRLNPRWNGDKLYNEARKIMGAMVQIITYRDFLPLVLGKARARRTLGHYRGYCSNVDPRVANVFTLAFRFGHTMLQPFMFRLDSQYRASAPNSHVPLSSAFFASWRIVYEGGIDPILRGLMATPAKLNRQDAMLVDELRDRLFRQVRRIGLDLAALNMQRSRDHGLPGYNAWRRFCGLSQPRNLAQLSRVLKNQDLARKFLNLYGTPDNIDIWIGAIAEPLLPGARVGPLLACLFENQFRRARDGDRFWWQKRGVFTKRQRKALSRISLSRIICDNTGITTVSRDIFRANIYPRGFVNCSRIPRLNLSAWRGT

Sequence | activity (single riboadenosine cleavage site in FS flanked by dabcyl-dT (5') and fluorescein-dT (3') [13 dabcyl-dT, 14 riboadenosine (R), 15 fluorescein-dT], 50 nM EPX, selection buffer with 15 mM MgCl2, RT) | Kd (single riboadenosine cleavage site in FS flanked by dabcyl-dT (5') and fluorescein-dT (3') [13 dabcyl-dT, 14 riboadenosine (R), 15 fluorescein-dT], apparent Kd = EPX concentration giving 50% of maximum cleavage, 50 mM HEPES pH 7.5, 150 mM NaCl, 15 mM MgCl2, 0.01% Tween20, RT) | activity (single riboadenosine cleavage site in FS flanked by dabcyl-dT (5') and fluorescein-dT (3'), EPX-activated RNA-cleaving DNAzyme, selection buffer, RT, no cleavage in buffer alone)
CTATGAACTGACTATGACCTCACTACCAAGATGCCATCCTACCAACGGTCGATGGATGAGTAATACAGGCCGGATGGGTACAGTCG [EPDz20M4 ligated to FS (FS-EPDz20M4)] | 18 % cleavage | 30 nM | –
CTATGAACTGACTATGACCTCACTACCAAGATGCCATCCTACCAACGGTCGATGGATGAGTAATACAGGCCGGATGGGTACAGTCGTAATCTATTCGAGCTCTGAACTCG [EPDz20 ligated to FS] | – | – | 15 % cleavage
